Where “and” joins values, the source holds several entries; their conditions need not be identical. Identical values can stand only once.
Assays:
Assay in all cases: NMR titration
[1] = molecular target: β3-integrin tail (UniProt P05106)
[2] = molecular target: talin F3 Y377A (mouse) (UniProt P26039)
[3] = molecular target: talin F3 K324D (mouse) (UniProt P26039)
[4] = molecular target: talin 1655–1822 S1684D (mouse, UniProt P26039 1655-1822, S1684D)
[5] = molecular target: talin 1655–1822 Y1777A (mouse, UniProt P26039 1655-1822, Y1777A)
[6] = molecular target: talin 1655–1822 rod domain (mouse, UniProt P26039 1655-1822)
[7] = molecular target: talin 1655–1822 T1767A (mouse, UniProt P26039 1655-1822, T1767A)
[8] = molecular target: talin 1655–1822 Q1764A (mouse, UniProt P26039 1655-1822, Q1764A)
[9] = molecular target: U-15N-labeled talin F3 (309–405) (mouse, UniProt P26039 309-405)
Sequence of U-15N-labeled talin F3 (309–405) (P26039 309-405): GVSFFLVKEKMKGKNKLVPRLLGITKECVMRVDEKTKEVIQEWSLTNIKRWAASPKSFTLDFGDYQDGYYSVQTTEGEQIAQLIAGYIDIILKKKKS

Sequence of talin 1655–1822 rod domain (mouse, UniProt P26039 1655-1822) (P26039 1655-1822): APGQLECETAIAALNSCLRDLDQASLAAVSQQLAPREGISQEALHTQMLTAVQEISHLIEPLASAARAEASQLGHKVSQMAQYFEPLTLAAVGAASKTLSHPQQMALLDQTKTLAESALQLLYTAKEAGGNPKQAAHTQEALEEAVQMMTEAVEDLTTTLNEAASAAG
Sequence of talin 1655–1822 T1767A (P26039 1655-1822 T1767A): as the sequence (P26039 1655-1822) above, with T113A counted along it
Sequence of talin 1655–1822 S1684D (P26039 1655-1822 S1684D): as the sequence (P26039 1655-1822) above, with S30D counted along it
Sequence of talin 1655–1822 Y1777A (P26039 1655-1822 Y1777A): as the sequence (P26039 1655-1822) above, with Y123A counted along it
Sequence of talin 1655–1822 Q1764A (P26039 1655-1822 Q1764A): as the sequence (P26039 1655-1822) above, with Q110A counted along it

Q: Which Kd [1] does the source give for “M319A F3 mutant (from UniProt P26039 309-405) (domain or fragment)” here?
A: 225 µM

Q: “talin 1655–1822 rod domain (from UniProt P26039 1655-1822) (domain or fragment)” was tested. Which fold decrease in binding affinity against wild-type F3 [2] did it give?
A: 5 fold

Q: What about the fold decrease in affinity against wild-type F3 [3] of the same molecule?
A: 23 fold

B1: talin F3 FERM subdomain (residues 309–400) (domain or fragment)
chain: GVSFFLVKEKMKGKNKLVPRLLGITKECVMRVDEKTKEVIQEWSLTNIKRWAASPKSFTLDFGDYQDGYYSVQTTEGEQIAQLIAGYIDIIL
Q: Does B1 bind [4]?
A: binds

Q: Does B1 bind [5]?
A: binds

Q: And the Kd [6]?
A: 11 µM and 9 µM

Q: Does B1 bind [7]?
A: binds

Q: Does B1 bind [8]?
A: binds

Q: Which Kd [9] does the source give for KLLITIHDRKEFAKFEEERARAKWDTANNPLYKEATSTFTNITYRGT (domain or fragment) [β3-integrin tail] here?
A: 273 ± 6 µM

From article PMC2685691 (The Journal of Biological Chemistry, 2009)
